Measurements from PMC2649033, “Comparison between the HCV IRES domain IV RNA structure and the Iron Responsive Element”.

Key:
Conditions in all cases: protein: recombinant; label: 32P-CTP; hairpin
hIRP1 (GST fusion) [1] = biological target: T1, hIRP1 (GST fusion) (human, UniProt P21399 1-889); experiment: EMSA; 2 mM Mg2+; 5.2 nM RNA; data not shown; 10 mM HEPES pH 7.6, 2 mM MgCl2, 40 mM KCl, 5% glycerol, 1 mM DTT, 20 uL, room temperature 30 min, […] (7%/14%) […]
T1 sequence: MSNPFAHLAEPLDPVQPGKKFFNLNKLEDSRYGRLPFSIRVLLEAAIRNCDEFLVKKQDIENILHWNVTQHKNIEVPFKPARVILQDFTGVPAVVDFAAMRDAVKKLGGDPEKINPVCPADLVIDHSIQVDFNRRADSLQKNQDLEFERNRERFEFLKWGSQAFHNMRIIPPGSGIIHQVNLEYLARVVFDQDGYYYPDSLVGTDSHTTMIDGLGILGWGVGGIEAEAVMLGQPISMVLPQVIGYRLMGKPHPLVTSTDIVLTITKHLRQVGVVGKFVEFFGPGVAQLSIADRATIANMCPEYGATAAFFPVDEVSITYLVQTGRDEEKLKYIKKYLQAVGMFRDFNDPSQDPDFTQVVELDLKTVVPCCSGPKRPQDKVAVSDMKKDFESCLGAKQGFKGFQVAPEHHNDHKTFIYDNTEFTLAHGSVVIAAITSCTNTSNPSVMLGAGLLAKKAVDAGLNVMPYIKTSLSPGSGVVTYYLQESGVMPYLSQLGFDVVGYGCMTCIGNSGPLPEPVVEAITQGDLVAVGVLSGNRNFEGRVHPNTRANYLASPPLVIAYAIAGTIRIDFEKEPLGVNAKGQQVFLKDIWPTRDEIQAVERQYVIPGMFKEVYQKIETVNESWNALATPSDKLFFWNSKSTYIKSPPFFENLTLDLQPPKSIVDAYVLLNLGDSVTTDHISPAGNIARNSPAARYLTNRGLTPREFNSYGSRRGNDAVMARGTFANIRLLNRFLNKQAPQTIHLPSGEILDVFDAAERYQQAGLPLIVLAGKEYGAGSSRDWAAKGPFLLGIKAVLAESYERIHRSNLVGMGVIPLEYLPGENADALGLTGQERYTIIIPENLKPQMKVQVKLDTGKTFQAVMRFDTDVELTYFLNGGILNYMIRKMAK

hIRP1 (GST fusion) [2] = biological target: T1, hIRP1 (GST fusion); experiment: EMSA; 240 ng hIRP1; 10 mM HEPES pH 7.6, 2 mM MgCl2, 40 mM KCl, 5% glycerol, 1 mM DTT, 20 uL, room temperature 30 min, […] (7%/14%) […]
hIRP1 (GST fusion) [3] = biological target: T1, hIRP1 (GST fusion); experiment: EMSA; 240 ng hIRP1; 10 mM HEPES pH 7.6, 2 mM MgCl2, 40 mM KCl, 5% glycerol, 1 mM DTT, 20 uL, room temperature 30 min, then heparin 0.63 ug/uL 10 min; native PAGE (7%/14%) in 0.5x TBE
hIRP1 (GST fusion) [4] = biological target: T1, hIRP1 (GST fusion); experiment: EMSA; 2 mM Mg2+; 5.2 nM RNA; mean of 3 experiments; 10 mM HEPES pH 7.6, 2 mM MgCl2, 40 mM KCl, 5% glycerol, 1 mM DTT, 20 uL, room temperature 30 min, […] (7%/14%) […]
hIRP1 (GST fusion) [5] = biological target: T1, hIRP1 (GST fusion); experiment: EMSA; 240 ng hIRP1; also bound at 100 ng; approx. equal to ET1+2+3; 10 mM HEPES pH 7.6, 2 mM MgCl2, 40 mM KCl, 5% glycerol, 1 mM DTT, 20 uL, room temperature 30 min, then heparin 0.63 ug/uL 10 min; native PAGE (7%/14%) in 0.5x TBE

GACCGUGCCCGUGAGCACGUC (structured_RNA) [ET1+2+3]
Kd (hIRP1 (GST fusion) [1]): ~0.05 nM

GACCGUGCACCGUGAGCACGAAUC (structured_RNA) [ET1]
binding result (hIRP1 (GST fusion) [2]): no binding

GUUCGUCCUGCUCCGAGGGCAAC (structured_RNA) [IRE (-) negative control]
binding result (hIRP1 (GST fusion) [3]): no binding

GACCGUGCCCAUGAGCACGUC (structured_RNA) [ET2+3]
Kd (hIRP1 (GST fusion) [4]): 54 ± 13 nM

GUUCGUCCUCAGUGCAGGGCAAC (structured_RNA) [eALAS IRE]
binding result (hIRP1 (GST fusion) [5]): binds

GACCGUGCACCAUGAGCACGAAUC (structured_RNA) [HCV IRES dIV wild type]
binding result (hIRP1 (GST fusion) [2]): no binding
